Source: patent publication US20220016183A1, “EXOSOME AND VARIOUS USES THEREOF” (PROSTEMICS CO., LTD., priority 2018, published 2022)

What was measured:
human fibroblasts (HDF) = assay: Skin fibroblast (HDF) proliferation; format: cell-based; conditions: 500 ng/ml, 48 hours, DMEM 1% FBS
Method: (§1) After 48 hours, a change in cell viability was measured, and results thereof are shown in Tables 8 and 9 below and FIGS. 9 and 10.

[1] = system: adipose-derived stem cells (ASC); assay: Adipose-derived stem cell (ASC) proliferation, CCK-8; format: cell-based; conditions: positive control of Table 10 (FBS, 10 wt. % in medium), 24 hours
Method: Adipocytes derived stem cells (ADCs) were cultured in DMEM medium (Invitrogen) containing 10% fetal calf serum and 1% penicillin/streptomycin at 37° C. and 5% CO2 conditions, and the medium was changed every 3 days. After culturing for 24 hours, the cells were treated under the conditions shown in Table 10 below, and further cultured for 24 hours. After removing the treated material from each cell and dispensing the CCK-8 solution thereto, the cells were incubated at 37° C. in a CO2 incubator for 2 hours, and absorbance was measured at 450 nm.

keratinocytes (HaCaT) = assay: Keratinocyte (HaCaT) proliferation; format: cell-based, human; conditions: 500 ng/ml, 48 hours, DMEM 1% FBS
Method: as §1

B1: E1: EGF, positive control at 500 ng/ml (protein, UniProt P01133 23-1207, looked up)
Pro-epidermal growth factor: PQHWSCPEGTLAGNGNSTCVGPAPFLIFSHGNSIFRIDTEGTNYEQLVVDAGVSVIMDFHYNEKRIYWVDLERQLLQRVFLNGSRQERVCNIEKNVSGMAINWINEEVIWSNQQEGIITVTDMKGNNSHILLSALKYPANVAVDPVERFIFWSSEVAGSLYRADLDGVGVKALLETSEKITAVSLDVLDKRLFWIQYNREGSNSLICSCDYDGGSVHISKHPTQHNLFAMSLFGDRIFYSTWKMKTIWIANKHTGKDMVRINLHSSFVPLGELKVVHPLAQPKAEDDTWEPEQKLCKLRKGNCSSTVCGQDLQSHLCMCAEGYALSRDRKYCEDVNECAFWNHGCTLGCKNTPGSYYCTCPVGFVLLPDGKRCHQLVSCPRNVSECSHDCVLTSEGPLCFCPEGSVLERDGKTCSGCSSPDNGGCSQLCVPLSPVSWECDCFPGYDLQLDEKSCAASGPQPFLLFANSQDIRHMHFDGTDYGTLLSQQMGMVYALDHDPVENKIYFAHTALKWIERANMDGSQRERLIEEGVDVPEGLAVDWIGRRFYWTDRGKSLIGRSDLNGKRSKIITKENISQPRGIAVHPMAKRLFWTDTGINPRIESSSLQGLGRLVIASSDLIWPSGITIDFLTDKLYWCDAKQSVIEMANLDGSKRRRLTQNDVGHPFAVAVFEDYVWFSDWAMPSVMRVNKRTGKDRVRLQGSMLKPSSLVVVHPLAKPGADPCLYQNGGCEHICKKRLGTAWCSCREGFMKASDGKTCLALDGHQLLAGGEVDLKNQVTPLDILSKTRVSEDNITESQHMLVAEIMVSDQDDCAPVGCSMYARCISEGEDATCQCLKGFAGDGKLCSDIDECEMGVPVCPPASSKCINTEGGYVCRCSEGYQGDGIHCLDIDECQLGEHSCGENASCTNTEGGYTCMCAGRLSEPGLICPDSTPPPHLREDDHHYSVRNSDSECPLSHDGYCLHDGVCMYIEALDKYACNCVVGYIGERCQYRDLKWWELRHAGHGQQQKVIVVAVCVVVLVMLLLLSLWGAHYYRTQKLLSKNPKNPYEESSRDVRSRRPADTEDGMSSCPQPWFVVIKEHQDLKNGGQPVAGEDGQAADGSMQPTSWRQEPQLCGMGTEQGCWIPVSSDKGSCPQVMERSFHMPSYGTQTLEGGVEKPHSLLSANPLWQQRALDPPHQMELTQ
modifications: Pro-epidermal growth factor
notes: EGF, positive control at 500 ng/ml
Human fibroblasts (HDF)
  HDF proliferation rate (%): 143.04%
[1]
  ASC proliferation rate (%): 186.10%
Keratinocytes (HaCaT)
  HaCaT proliferation rate (%): 160.38%
